{"source": "patent US12123009B2", "about": "“Methods and compositions for PPO herbicide tolerance in plants” (Monsanto Technology LLC, priority 2015, dated 2024)", "key": {"[1]": {"target": "Soybean (Glycine max) protoporphyrinogen oxidase (PPO), wild type", "assay": "PPO enzyme assay (plastid extract)", "format": "biochemical", "conditions": "3 μM protogen; pH 7.4, 30° C.; read-out: S-3100 IC50"}, "[2]": {"target": "H_N110 (SEQ ID NO: 10), microbial HemG protoporphyrinogen oxidase", "assay": "PPO enzyme assay (bacterial extract)", "conditions": "read-out: S-3100 IC50; 3 μM protogen; pH 7.4, 37° C."}, "[3]": {"system": "maize, non-transgenic or F1 containing H_N10 (SEQ ID NO: 4)", "assay": "Efficacy field trial of F1 maize", "format": "in vivo", "description": "This F1 population was segregating (50% hemizygous and 50% null) and selection for transgenic plants was not conducted prior to injury ratings. The overall average injury ratings for such a population are expected to be higher than a homogenous transgenic population since it is difficult to discern non-transgenic plants from transgenic plants. The trials were conducted at two locations with two replicates and 3 treatments per construct. Non-transgenic maize plants were used as a negative control. The herbicide application treatments were as follows: Treatment 1 was 0.036 lb ai/acre S-3100 applied at V2 followed by (fb) V4 fb V8; Treatment 2: was 0.072 lb ai/acre S-3100 applied at V2 fb V4 fb V8; Treatment 3: was 0.144 lb ai/acre S-3100 applied at V2 fb V4 fb V8. Crop Injury Percent ratings were assessed at the V2 growth stage (CIPV2) and at the V4 growth stage (CIPV4) at 5 to 7 days after treatment (the error V2 and error V4 are half of the least significant difference (LSD)). The crop injury ratings were combined for both locations."}, "[4]": {"target": "H_N70 (SEQ ID NO: 8), microbial HemG protoporphyrinogen oxidase (Pantoea phytostimulans, UniProt A0ACH3N612)", "sequence (A0ACH3N612 entry or part of it)": "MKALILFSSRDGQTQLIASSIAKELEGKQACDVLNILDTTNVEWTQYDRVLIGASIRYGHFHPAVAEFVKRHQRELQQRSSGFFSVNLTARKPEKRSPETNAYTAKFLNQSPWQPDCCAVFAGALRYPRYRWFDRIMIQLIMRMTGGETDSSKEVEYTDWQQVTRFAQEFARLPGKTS", "assay": "PPO enzyme assay (bacterial extract)", "conditions": "read-out: S-3100 IC50; 3 μM protogen; pH 7.4, 37° C."}, "[5]": {"target": "H_N60 (SEQ ID NO: 3), microbial HemG protoporphyrinogen oxidase", "assay": "PPO enzyme assay (bacterial extract)", "conditions": "read-out: S-3100 IC50; 3 μM protogen; pH 7.4, 37° C."}, "[6]": {"system": "transgenic F1 maize expressing H_N10 (SEQ ID NO:4)", "assay": "F1 maize greenhouse herbicide tolerance", "format": "in vivo", "conditions": "40 grams/ha, V3, seven days", "description": "The plants were treated with 40 grams/ha S-3100 at the V3 growth stage and injury ratings were taken seven days after treatment."}, "soybean plantlets": {"system": "soybean plantlets", "assay": "High-throughput soybean screening for herbicide tolerance (plantlets)", "format": "in vivo, soybean (A3555)", "parameters": "key: 0 for poor tolerance, high damage, low green coloration; 1 for some tolerance, average damage, moderate green coloration; 2 for good tolerance, low damage, high green coloration", "conditions": "S-3100 spray five weeks post-transformation, scored day four", "procedure,_shortened": "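Soybean embryo explants (A3555) transformed via A. tumefaciens; at five weeks, plantlets sprayed with two passes of S-3100 (0.3 g in 5.0 mL crop oil concentrate plus 495 mL water). After four days with at least 15 h light daily, green coloration versus damage scored 0 (poor), 1 (some) or 2 (good tolerance).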"}, "[7]": {"conditions": "H_N10, construct 6, Trt 1, 0.036 lb ai/acre"}, "[8]": {"conditions": "H_N10, construct 6, Trt 2, 0.072 lb ai/acre"}, "[9]": {"conditions": "H_N10, construct 6, Trt 3, 0.144 lb ai/acre"}, "[10]": {"conditions": "H_N10, construct 16, Trt 1, 0.036 lb ai/acre"}, "[11]": {"conditions": "H_N10, construct 16, Trt 2, 0.072 lb ai/acre"}, "[12]": {"conditions": "H_N10, construct 16, Trt 3, 0.144 lb ai/acre"}, "[13]": {"conditions": "wildtype, Trt 1, 0.036 lb ai/acre V2 fb V4 fb V8"}, "[14]": {"conditions": "wildtype, Trt 2, 0.072 lb ai/acre V2 fb V4 fb V8"}, "[15]": {"conditions": "wildtype, Trt 3, 0.144 lb ai/acre V2 fb V4 fb V8"}}}
{"molecule": "CCOC(=O)COc1ncccc1Oc1cc(-n2c(=O)cc(C(F)(F)F)n(C)c2=O)c(F)cc1Cl", "note": "[S-3100, ethyl [3-2-chloro-4-fluoro-5-(1-methyl-6-trifluoromethyl-2,4-dioxo-1,2,3,4-tetrahydropyrimidin-3-yl)phenoxy]-2-pyridyloxylacetate]", "values": [{"measurement": "IC50", "setting": "[1]", "result": 0.004, "unit": "µM"}, {"measurement": "IC50", "setting": "[2]", "result": "> 100", "unit": "µM"}, {"measurement": "CIPV2 (Crop Injury Percent, V2)", "setting": "[3]; [7]", "result": 37.5, "unit": "%"}, {"measurement": "CIPV4 (Crop Injury Percent, V4)", "setting": "[3]; [7]", "result": 0, "unit": "%"}, {"measurement": "CIPV2 (Crop Injury Percent, V2)", "setting": "[3]; [8]", "result": 37.5, "unit": "%"}, {"measurement": "CIPV4 (Crop Injury Percent, V4)", "setting": "[3]; [8]", "result": 0, "unit": "%"}, {"measurement": "CIPV2 (Crop Injury Percent, V2)", "setting": "[3]; [9]", "result": 50, "unit": "%"}, {"measurement": "CIPV4 (Crop Injury Percent, V4)", "setting": "[3]; [9]", "result": 0, "unit": "%"}, {"measurement": "CIPV2 (Crop Injury Percent, V2)", "setting": "[3]; [10]", "result": 96.3, "unit": "%"}, {"measurement": "CIPV4 (Crop Injury Percent, V4)", "setting": "[3]; [10]", "result": 98.5, "unit": "%"}, {"measurement": "CIPV2 (Crop Injury Percent, V2)", "setting": "[3]; [11]", "result": 99.5, "unit": "%"}, {"measurement": "CIPV4 (Crop Injury Percent, V4)", "setting": "[3]; [11]", "result": 99.5, "unit": "%"}, {"measurement": "CIPV2 (Crop Injury Percent, V2)", "setting": "[3]; [12]", "result": 99.5, "unit": "%"}, {"measurement": "CIPV4 (Crop Injury Percent, V4)", "setting": "[3]; [12]", "result": 99.5, "unit": "%"}, {"measurement": "injury following V2 and V4 application", "setting": "[3]; non-transgenic and construct 16, all three treatments", "result": "94.6-99.5%"}, {"measurement": "CIPV2 (Crop Injury Percent, V2)", "setting": "[3]; [13]", "result": 94.6, "unit": "%"}, {"measurement": "CIPV4 (Crop Injury Percent, V4)", "setting": "[3]; [13]", "result": 99, "unit": "%"}, {"measurement": "CIPV2 (Crop Injury Percent, V2)", "setting": "[3]; [14]", "result": 99.5, "unit": "%"}, {"measurement": "CIPV4 (Crop Injury Percent, V4)", "setting": "[3]; [14]", "result": 99.5, "unit": "%"}, {"measurement": "CIPV2 (Crop Injury Percent, V2)", "setting": "[3]; [15]", "result": 99.5, "unit": "%"}, {"measurement": "CIPV4 (Crop Injury Percent, V4)", "setting": "[3]; [15]", "result": 99.5, "unit": "%"}, {"measurement": "IC50", "setting": "[4]", "result": "> 100", "unit": "µM"}, {"measurement": "IC50", "setting": "[5]", "result": "> 100", "unit": "µM"}, {"measurement": "events producing highly tolerant plants (10% or less injury)", "setting": "[6]; H_N10, construct 6, out of 18 events", "result": 13, "unit": "events"}, {"measurement": "events producing highly tolerant plants (10% or less injury)", "setting": "[6]; H_N10, construct 16", "result": "no events"}]}
{"molecule": "H_N90: microbial HemG protoporphyrinogen oxidase, SEQ ID NO:1 (SEQ ID NO:11 lacking start methionine; variants 18, 19) (protein, listed as Enterobacter cloacae) MKALVLYSTRDGQTHAIASYIASCMKEKAECDVIDLTHGEHVNLTQYDQVLIGASIRYGHFNAVLDKFIKRNVDQLNNMPSAFFCVNLTARKPEKRTPQTNPYVRKFLLATPWQPALCGVFAGALRYPRYRWIDKVMIQLIMRMTGGETDTSKEVEYTDWEQVKKFAEDFAKLSYKKAL", "values": [{"measurement": "coloration score", "setting": "soybean plantlets; TP9", "result": 1}, {"measurement": "coloration score", "setting": "soybean plantlets; TP10", "result": 2}, {"measurement": "coloration score", "setting": "soybean plantlets; TP11", "result": 2}, {"measurement": "coloration score", "setting": "soybean plantlets; TP12", "result": 2}, {"measurement": "coloration score", "setting": "soybean plantlets; TP13", "result": 2}, {"measurement": "coloration score", "setting": "soybean plantlets; TP14", "result": 2}, {"measurement": "coloration score", "setting": "soybean plantlets; TP15", "result": 2}, {"measurement": "coloration score", "setting": "soybean plantlets; TP16", "result": 1}, {"measurement": "coloration score", "setting": "soybean plantlets; TP17", "result": 2}, {"measurement": "coloration score", "setting": "soybean plantlets; TP18", "result": 2}, {"measurement": "coloration score", "setting": "soybean plantlets; TP19", "result": 1}, {"measurement": "coloration score", "setting": "soybean plantlets; TP20", "result": 2}, {"measurement": "coloration score", "setting": "soybean plantlets; TP21", "result": 1}, {"measurement": "coloration score", "setting": "soybean plantlets; TP22", "result": 2}, {"measurement": "coloration score", "setting": "soybean plantlets; TP23", "result": 1}, {"measurement": "coloration score", "setting": "soybean plantlets; TP24", "result": 1}, {"measurement": "coloration score", "setting": "soybean plantlets; TP25", "result": 1}, {"measurement": "coloration score", "setting": "soybean plantlets; TP26", "result": 0}, {"measurement": "coloration score", "setting": "soybean plantlets; TP27", "result": 1}, {"measurement": "coloration score", "setting": "soybean plantlets; TP28", "result": 2}, {"measurement": "coloration score", "setting": "soybean plantlets; TP29", "result": 1}, {"measurement": "coloration score", "setting": "soybean plantlets; TP30", "result": 1}, {"measurement": "coloration score", "setting": "soybean plantlets; TP31", "result": 0}, {"measurement": "coloration score", "setting": "soybean plantlets; TP32", "result": 0}, {"measurement": "coloration score", "setting": "soybean plantlets; TP33", "result": 2}, {"measurement": "coloration score", "setting": "soybean plantlets; TP34", "result": 2}, {"measurement": "coloration score", "setting": "soybean plantlets; TP35", "result": 1}, {"measurement": "coloration score", "setting": "soybean plantlets; TP36", "result": 2}]}
